These results are taken from patent US20180112001A1 (Regeneron, published 2018).

T1: soluble monomeric human MUC16, truncated format encompassing the last five SEA domains of Mucin-16 (human)
T1 construct: also called hMUC16.mmh; MUC16 "nub"
T1 chain: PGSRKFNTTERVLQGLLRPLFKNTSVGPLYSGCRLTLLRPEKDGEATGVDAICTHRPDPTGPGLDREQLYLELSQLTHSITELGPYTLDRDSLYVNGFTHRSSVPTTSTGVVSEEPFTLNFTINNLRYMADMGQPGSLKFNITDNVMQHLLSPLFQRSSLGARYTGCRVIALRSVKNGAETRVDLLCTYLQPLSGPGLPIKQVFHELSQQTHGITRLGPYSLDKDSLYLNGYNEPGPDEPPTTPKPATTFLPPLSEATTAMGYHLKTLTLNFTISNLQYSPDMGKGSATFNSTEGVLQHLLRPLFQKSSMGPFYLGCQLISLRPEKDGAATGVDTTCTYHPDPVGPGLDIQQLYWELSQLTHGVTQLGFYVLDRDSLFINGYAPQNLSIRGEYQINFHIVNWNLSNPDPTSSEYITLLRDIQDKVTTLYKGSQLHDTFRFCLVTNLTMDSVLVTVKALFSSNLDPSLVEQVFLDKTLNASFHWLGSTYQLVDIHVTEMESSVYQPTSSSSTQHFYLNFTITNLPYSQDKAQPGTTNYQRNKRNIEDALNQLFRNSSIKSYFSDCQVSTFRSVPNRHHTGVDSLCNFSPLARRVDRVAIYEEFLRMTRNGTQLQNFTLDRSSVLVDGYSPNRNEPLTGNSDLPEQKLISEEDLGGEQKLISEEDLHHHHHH

B1: H1M9528N (antibody, mouse IgG1, V domains shown)
VH: QMQLQESGPGLVKPSETLSLTCTVSGGSISSYYWNWIRQPPGKGLEWIGYIYYSGNNFNPSLKSRVTISVDTSKNQFSLKLSSVTAADTAVYYCARAFHWNYEFDYWGQGTLVTVSS
VL: EIVLTQSPGTLSLSPGERATLSCRASQSVSNNYLAWYQQKPGQAPRLLLYGASSRTTDIPDRFSGSGSGTDFTLTISRLEPEDFAVYYCQQYDNSPLTFGGGTKVEIR
notes: Mouse IgG1 constant region (H1M)
B2: H1H9528N (antibody, human IgG1, V domains shown)
VH: B1 VH
VL: B1 VL
notes: Human IgG1 Fc version
B3: H2M7135N (antibody, mouse IgG2, V domains shown)
VH: EVQLVESGGGLVQAGGSLRLSCAASGFTFSYHEMNWVRQAPGKGLEWVSYIGSRGTTKHYADPVKGRFTISRDNAKNSLYLQMNSLRAEDTAVYYCASEVGSILGYSMDVWGQGTTVTVSS
VL: DIQMTQSPSSLSASVGDRVTITCRASQSVSRYLNWCQQKPGKAPKLLTYAASSLQSGVPSRFSGSGSGTDFTLTISSLQPEDFAAYFCQQSYSTPPITFGQGTRLEIK
notes: Mouse IgG2 constant region (H2M)
B4: H1H8770P (antibody, human IgG1, V domains shown)
VH: QVQLVESGGGVVQPGRSLRLSCAASGFTFSDHGMHWVRQAPGKGLEWVAVISYHGSNKHYADSVKGRFTISRDNSKNALYLQMNSLRPEDTAMYYCAKDGYDFWNGYSLFDYWGQGTLVTVSS
VL: B3 VL with V29I, R31N, C36Y, T48I, A50T, S53N, Q55L, A85T, F87Y, R104K
notes: Human IgG1 (H1H)
B5: H1H8783P (antibody, human IgG1, V domains shown)
VH: B4 VH with G33A, S56T, N57D, H59Q, A61G, G106A
VL: B3 VL with V29I, R31N, C36Y, T48I, A50T, Q55L, A85T, F87Y
notes: Human IgG1 (H1H)
B6: H3M9529N (antibody, mouse IgG3, V domains shown)
VH: QVQLQQWGAGLLKPSETLSLTCAVYGGSFSGFYWSWIRQPPGKGLEWIGEINHSGSAKYNPSLKNRVIISIDTSKNQFSLKLDSVTAADTAVYNCARQGWNFAIFDYWGQGTLVDVSS
VL: DIVMTQSPDSLAVSLGGRATINCKSSQSVLHSSYNKDHLAWYQQRPGQPPKLLIYWASTRESGVPDRFSGSGSGTDFTLTISSLQAEDVAVYYCQQYNILPPTFGQGTRVEIK
notes: Mouse IgG3 constant region (H3M)
B7: H1H9529N (antibody, human IgG1, V domains shown)
VH: B6 VH
VL: B6 VL
notes: Human IgG1 Fc version
B8: H1H8755P (antibody, human IgG1, V domains shown)
VH: EVQLVESGGGLVQPGRSLRLSCAASGFTFNDYAMHWVRQSPGKGLEWVSGIDWNGGSIDYADSVKGRFTISRDTAKNSLYLQMNSLKVEDTALYYCAKDIGHWNYIGGMDVWGQGTTVTVSS
VL: DIQMTQSPSSLSASVGDRVTITCRASQSINIYLNWYQQKPGKAPKFLIYAASSLQTGVPSRFSGSGSGTDFTLTISSLEPEDFATYYCQHSYSTPPITFGQGTRLEIK
notes: Human IgG1 (H1H)
B9: H1H8794P (antibody, V domains shown)
VH: QVQLVESGGGLVKPGGSLRLSCAASGFTFRDYSMSWIRQAPGKGLEWVSYVTFFNSAIYYADSVKGRFTISRDNAKNSLYLQMNSLRAEDTAVYYCAREREPIVGGFDYWGQGTLVTVSS
VL: B8 VL with I31S, F46L, T56G, S65G, S76T, E79Q, Y86F, H90Q, T94S
notes: Human IgG1 (H1H)
B10: H1H8790P (antibody, human IgG1, V domains shown)
VH: EVQLVESGGGLVQPGGSLRLSCEASGFTFSNYAMSWVRQAPGKGLEWVSGMSGSGTYPYYADSVKGRFTISRDNSKNMLYLQMNSLRVKDTAVYYCAKDGVDTAMILDTFDLWGQGTMVTVSS
VL: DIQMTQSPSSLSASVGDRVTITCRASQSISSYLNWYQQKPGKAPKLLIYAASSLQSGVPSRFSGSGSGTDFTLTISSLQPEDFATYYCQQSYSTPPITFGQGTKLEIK
notes: Human IgG1 (H1H)
B11: H2M9538N (antibody, V domains shown)
VH: QVQLQESGPGLVKPSETLSLTCTVSGGSISSYYWSWIRQPPGKGLEWIGYIYYSGSTNYNPSLKSRVTISVDTSKNQFSLKLSSVTAADTAVYYCARKKLVFDYWGQGTLVTVSS
VL: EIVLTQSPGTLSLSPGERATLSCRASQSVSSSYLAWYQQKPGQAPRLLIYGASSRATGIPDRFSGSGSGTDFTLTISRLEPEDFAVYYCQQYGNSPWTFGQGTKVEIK
B12: H1H9538N (antibody, V domains shown)
VH: B11 VH
VL: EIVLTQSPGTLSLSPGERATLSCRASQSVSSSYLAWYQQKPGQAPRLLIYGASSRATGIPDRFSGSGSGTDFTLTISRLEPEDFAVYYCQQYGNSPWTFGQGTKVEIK
B13: H1M7137N (antibody, mouse IgG1, V domains shown)
VH: QVQLQESGPGLVKPSETLSLTCTVSGGAINTYYWSWIRQPPGKGLEWIGYIYYRGNTNYNPSLRSRVTISVDTSKNQFFLKLRSVTVADSAVYFCARGWNYRAEYFQHWGQGTVVTVSS
VL: not shown
notes: as for B1
B14: H3M9524N (antibody, mouse IgG3, V domains shown)
VH: QVQLQQWGAGLLKPSETLSLTCAVYGGSFSDYYWSWIRQPPGKGLEWIGEINHRGKTNYNPSLKSRVSISVDPSKNQFSLKLSSVTAADTAVYYCARQGWNYAIFDYWGQGILVPVSS
VL: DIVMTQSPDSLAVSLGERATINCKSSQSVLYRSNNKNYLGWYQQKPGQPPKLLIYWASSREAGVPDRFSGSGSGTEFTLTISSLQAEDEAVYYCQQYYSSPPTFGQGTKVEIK
notes: as for B6
B15: H1H9525N (antibody, human IgG1, V domains shown)
VH: B14 VH with D31G, R54S, N58T, N60S, S68T, P73T, N76S, W100L, I112T, P115T
VL: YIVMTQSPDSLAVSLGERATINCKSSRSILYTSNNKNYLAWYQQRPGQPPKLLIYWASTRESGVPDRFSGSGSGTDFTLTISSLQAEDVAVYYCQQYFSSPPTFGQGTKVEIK
notes: Human IgG1 Fc version
B16: H1H9524N (antibody, human IgG1, V domains shown)
VH: B14 VH
VL: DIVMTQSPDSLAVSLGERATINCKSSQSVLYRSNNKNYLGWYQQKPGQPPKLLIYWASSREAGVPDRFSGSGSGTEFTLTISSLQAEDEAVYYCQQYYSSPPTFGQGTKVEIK
notes: Human IgG1 Fc version
B17: H3M9525N (antibody, mouse IgG3, V domains shown)
VH: B14 VH with D31G, R54S, N58T, N60S, S68T, P73T, N76S, W100L, I112T, P115T
VL: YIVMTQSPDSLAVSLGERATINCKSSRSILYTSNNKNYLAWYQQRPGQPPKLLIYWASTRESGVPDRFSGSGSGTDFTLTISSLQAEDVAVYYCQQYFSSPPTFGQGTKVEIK
notes: as for B6

Positions count from the first letter of the chain named. In names and notes the source's numbering stands.

One test deals with T2, human MUC16 (mucin 16), endogenously expressed on cells (human).
T2 construct: Endogenous MUC16 on OVCAR-3 / OVCAR3-Luc / PEO-1 / HPAC cells; also called hMUC16
Kind of test: MSD electrochemiluminescence cell binding; RLU ratio OVCAR-3/SK-OV-3; Ab 1.9 nM.
On to B1, for which the “Ratio: anti-MUC16 Binding OVCAR-3/SK-OV-3” value is 153 ratio.
On the same count and under the same terms, as for B2, the figure is 41 ratio; as for B3, 30 ratio.
As for B4, the “Ratio: anti-MUC16 Binding OVCAR-3/SK-OV-3” value was determined as 9 ratio.
For the molecule B5, the “Ratio: anti-MUC16 Binding OVCAR-3/SK-OV-3” value worked out at 11 ratio.
With B6, the “Ratio: anti-MUC16 Binding OVCAR-3/SK-OV-3” value amounted to 143 ratio.
Same read-out and setting: as for B7, the figure is 109 ratio.
Turning to B8, the “Ratio: anti-MUC16 Binding OVCAR-3/SK-OV-3” value stood at 13 ratio.
On to B9, for which the “Ratio: anti-MUC16 Binding OVCAR-3/SK-OV-3” value came out at 8 ratio.
Still for that read-out and setting: next, B10: 8 ratio; B11: 89 ratio; B12: 12 ratio.
Consider B13, for which the “Ratio: anti-MUC16 Binding OVCAR-3/SK-OV-3” value came to 77 ratio.
On to B14, for which the “Ratio: anti-MUC16 Binding OVCAR-3/SK-OV-3” value turned out to be 81 ratio.
Regarding B15, the “Ratio: anti-MUC16 Binding OVCAR-3/SK-OV-3” value was found to be 4 ratio.
On to B16, for which the “Ratio: anti-MUC16 Binding OVCAR-3/SK-OV-3” value was 20 ratio.
For B17, the “Ratio: anti-MUC16 Binding OVCAR-3/SK-OV-3” value is 137 ratio.

For a further test, the target named is T1, soluble monomeric human MUC16, …. Kind of test: SPR Biacore, antibody captured, soluble monomeric hMUC16.mmh injected, 25C. Background: In SPR one partner is held on a chip, and binding of the other changes the refractive index at the surface.
With B4, the Kd stood at 1.25 nM, the koff was 0.000308 s⁻¹, the kon was found to be 247000 M⁻¹ s⁻¹ and the “t1/2” value was determined as 38 min.
The corresponding values for B5 are 0.614 nM, 0.000107 s⁻¹, 174000 M⁻¹ s⁻¹ and 108 min.
Consider B8, for which the Kd stood at 0.286 nM, the koff was found to be 0.000149 s⁻¹, the kon was 522000 M⁻¹ s⁻¹ and the “t1/2” value was 77 min.
For the molecule B9, the Kd is 0.771 nM, the koff was 0.000279 s⁻¹, the kon amounted to 362000 M⁻¹ s⁻¹ and the “t1/2” value came out at 41 min.
Take B10: the Kd was determined as 7.53 nM, the koff stood at 0.000761 s⁻¹, the kon was 101000 M⁻¹ s⁻¹ and the “t1/2” value is 15 min.

For another test the target is unchanged. The description is as above. This is another data set of the same source.
Take B1: the binding result is listed as “no binding”.
Consider B3, for which the Kd is 4.27 nM, the koff was found to be 0.000218 s⁻¹, the kon amounted to 51000 M⁻¹ s⁻¹ and the “t ½” value came out at 53 min.
Turning to B6, the binding result was “no binding”.
For B13, the Kd is 1.72 nM, the koff is 9.09e-05 s⁻¹, the kon was determined as 53000 M⁻¹ s⁻¹ and the “t ½” value was 127 min.
With B14, the binding result is “no binding”.
The same measure, in the same setting: next, B17: “no binding”.

Another test has as its target T2, human MUC16 (mucin 16), endogenously …. As to the kind of experiment: MSD electrochemiluminescence cell binding; RLU ratio OVCAR-3/SK-OV-3; Ab 16.7 nM.
For B1, the “Ratio: anti-MUC16 Binding OVCAR-3/SK-OV-3” value was 120 ratio.
For B2, the “Ratio: anti-MUC16 Binding OVCAR-3/SK-OV-3” value turned out to be 18 ratio.
On the same count and under the same terms, as for B3, the figure is 5 ratio.
In the case of B4, the “Ratio: anti-MUC16 Binding OVCAR-3/SK-OV-3” value is 3 ratio.
Regarding B5, the “Ratio: anti-MUC16 Binding OVCAR-3/SK-OV-3” value is 4 ratio.
Regarding B6, the “Ratio: anti-MUC16 Binding OVCAR-3/SK-OV-3” value is 99 ratio.
Consider B7, for which the “Ratio: anti-MUC16 Binding OVCAR-3/SK-OV-3” value worked out at 74 ratio.
B8: the “Ratio: anti-MUC16 Binding OVCAR-3/SK-OV-3” value stood at 5 ratio.
For B9, the “Ratio: anti-MUC16 Binding OVCAR-3/SK-OV-3” value is 3 ratio.
As to B10, the “Ratio: anti-MUC16 Binding OVCAR-3/SK-OV-3” value worked out at 3 ratio.
Take B11: the “Ratio: anti-MUC16 Binding OVCAR-3/SK-OV-3” value amounted to 26 ratio.
For B12, the “Ratio: anti-MUC16 Binding OVCAR-3/SK-OV-3” value came out at 13 ratio.
Regarding B13, the “Ratio: anti-MUC16 Binding OVCAR-3/SK-OV-3” value was found to be 29 ratio.
For the molecule B14, the “Ratio: anti-MUC16 Binding OVCAR-3/SK-OV-3” value is 57 ratio.
B15: the “Ratio: anti-MUC16 Binding OVCAR-3/SK-OV-3” value turned out to be 21 ratio.
As for B16, the “Ratio: anti-MUC16 Binding OVCAR-3/SK-OV-3” value worked out at 48 ratio.
Regarding B17, the “Ratio: anti-MUC16 Binding OVCAR-3/SK-OV-3” value was 51 ratio.

The Kd is a measure of binding affinity in units of concentration. Low values mean higher affinity, high ones lower affinity. Broadly, the koff is the rate constant with which the complex falls apart. Low values mean slow dissociation, high ones fast dissociation. The kon is the rate constant with which the complex forms.
